In the DeepSol protein solubility set:

Test: soluble on expression in E. coli; label from the status in PepcDB or PDB records

| Sequence | soluble on expression in E. coli |
| --- | --- |
| MSGMILDELSWRGLIAQSTDLDTLAAEAQRGPMTVYAGFDPTAPSLHAGHLVPLLTLRRFQRAGHRPIVLAGGATGMIGDPRDVGERSLNEADTVAEWTERIRGQLERFVDFDDSPMGAIVENNLEWTGSLSAIEFLRDIGKHFSVNVMLARDTIRRRLAGEGISYTEFSYLLLQANDYVELHRRHGCTLQIGGADQWGNIIAGVRLVRQKLGATVHALTVPLVTAADGTKFGKSTGGGSLWLDPQMTSPYAWYQYFVNTADADVIRYLRWFTFLSADELAELEQATAQRPQQRAAQRRLASELTVLVHGEAATAAVEHASRALFGRGELARLDEATLAAALRETTVAELKPGSPDGIVDLLVASGLSASKGAARRTIHEGGVSVNNIRVDNEEWVPQSSDFLHGRWLVLRRGKRSIAGVERIGLEHHHHHH | soluble |
| MSGNQNGENVQQKKEKMCSIGETIYTWTQNKHATTYVGTYTKAFFSGEVCREIREHDEFLGMSFSSFF | not soluble |
| MSGRHEACITPARRARQCLNRGNTMRHLPLFSLMLFPASVYAADSDGANLN | not soluble |
| MSHAVSRLRDLRMARVAKPFFARGSRAERCPRCRVIPSHCLCAWRPKVVARSAMCLVMHDVEPLKPSNTGWLIADVIGDTTAFSWSRTEVDPQLLALLADPQWQPYIVFPGEFVAPERVVSEVRQEEGKRPLFILLDATWSEARKMFRKSPYLEHLPVLSLSPEKLSRYKLRRSKRDDHFCTAEVAALCLELAGDEQVSQVLDAYLDVFSTHYLSAKFQKAIDPDDDVHARLKPFVLEHHHHHH | not soluble |
| MSHCSCHDKPQHSLLPAAYRILSITRHTPLEWNFRVAVDFPAHWGQFVEVSLPRVGEAPISVSDYGDGWIDLLIRNVGKVTSALFTLKEGDNVWLRGCYGNGYPVDTLRHKPLLVVAGGTGVAPVKGLMRYFVENPQEIGQLDMILGYKNRDCVLYKEEMATWRGKHNLVLTLDEGEADDRYQIGRVTDRLADMTLSDIDTMQAIVVGPPIMITFTVKMLLQKGLKPEQIWVDYERRMACSVGKCGHCRMGEVYVCTDGPIFNYAVAQRFAD | not soluble |
| MSHDFAHTELEELLTRTREAIEASFGNRSPQVEVRGEGTDPDGHVRAVAVSGGRIETVEIAPQAVRLGSHRLAECALAAVNAALADLEAKAAEAAGLTGPQADALRERLREMQDLSLQQLRSYSRSLQDLMNSFERS | not soluble |
| MSHHFRLAKGIPHVVDATPPHSMYNSPISIHYLPKRASSADPFKRKALSKSQRELTDFVNGRNGDPHGLRLPLPIRSSLTDLVKPKLLENRNYQPPRRKTPSKDHHSKAEENSKKAKKLERINKFKDAVLTDLIENDTYSDQMIMNSIRRHMEKLAGVISWDDLEKAADELIKKIGLNTNVQNSRRSSRSRDKNQRFNKPPLPYKVERIGSAQSLESLSSPSSSSAKTSSSSSSSSFSTSSQETNSSESS | not soluble |
| MSHPRYKSLLNRDRIVEAFESGVLAKGGMIAHGRGETFDYLIGESTTDAALNSIKVSAALLVLAENPVISVNGNSVALAKDEFVELAKELNGKIEVNLFYRTTEREEKIKDVFESDINGGIVLLGIDNADKQIPGIDHLRGKVSESGIYTSDVVLVPLEDGDRAEALVKMGKTVIAIDLNPLSRTARKSTISIIDELTRCIPLITEYVREYKKMDRAELLKIVENYDNEENLRNILNLISKRLTSVDLEHHHHHH | not soluble |
| MSHVTAAPNVLAASAGELAAIGSTMRAANAAAAAPTAGVLAAGGDDVSAGIAALFGARAQAYQAISAQAALFHDRFVQILQEGAAAYAMAEAANALPLQKAQGVVSELAQDRTGGTGTGQSRGAGGFGGVGQAGGKGWDGGPIGNGQVGEQHGAGQLGSTDGNPGVAGAAHGSGVSASHGSGATGAAGVADPGGSGAGVGSAAGNGTGAGSADAVGGAGTGRDIVGSVRGDGGVGMASGDGGLSTGAAGASAEGGLMPGFGGAPWVGGHWGLGGEGHSGAIGGVGEQVAPAVATAPAVSPATTSAVAAESGSTPATKAQAMHATTNPGNAAHQGNPADPGNSARRADGGRDEQLLLLPLTSLRGLRHTLKKLSGLRARNGLLTASGDNASGSGRPWDRDQLLRALGLRPPGHE | not soluble |
